“And” between values parts separate entries of the source, which are not always exact repeats. Equal entries are not always repeated.
T1: mouse BMP receptor kinase protein (m-BRK-3) (mouse)
T1 chain: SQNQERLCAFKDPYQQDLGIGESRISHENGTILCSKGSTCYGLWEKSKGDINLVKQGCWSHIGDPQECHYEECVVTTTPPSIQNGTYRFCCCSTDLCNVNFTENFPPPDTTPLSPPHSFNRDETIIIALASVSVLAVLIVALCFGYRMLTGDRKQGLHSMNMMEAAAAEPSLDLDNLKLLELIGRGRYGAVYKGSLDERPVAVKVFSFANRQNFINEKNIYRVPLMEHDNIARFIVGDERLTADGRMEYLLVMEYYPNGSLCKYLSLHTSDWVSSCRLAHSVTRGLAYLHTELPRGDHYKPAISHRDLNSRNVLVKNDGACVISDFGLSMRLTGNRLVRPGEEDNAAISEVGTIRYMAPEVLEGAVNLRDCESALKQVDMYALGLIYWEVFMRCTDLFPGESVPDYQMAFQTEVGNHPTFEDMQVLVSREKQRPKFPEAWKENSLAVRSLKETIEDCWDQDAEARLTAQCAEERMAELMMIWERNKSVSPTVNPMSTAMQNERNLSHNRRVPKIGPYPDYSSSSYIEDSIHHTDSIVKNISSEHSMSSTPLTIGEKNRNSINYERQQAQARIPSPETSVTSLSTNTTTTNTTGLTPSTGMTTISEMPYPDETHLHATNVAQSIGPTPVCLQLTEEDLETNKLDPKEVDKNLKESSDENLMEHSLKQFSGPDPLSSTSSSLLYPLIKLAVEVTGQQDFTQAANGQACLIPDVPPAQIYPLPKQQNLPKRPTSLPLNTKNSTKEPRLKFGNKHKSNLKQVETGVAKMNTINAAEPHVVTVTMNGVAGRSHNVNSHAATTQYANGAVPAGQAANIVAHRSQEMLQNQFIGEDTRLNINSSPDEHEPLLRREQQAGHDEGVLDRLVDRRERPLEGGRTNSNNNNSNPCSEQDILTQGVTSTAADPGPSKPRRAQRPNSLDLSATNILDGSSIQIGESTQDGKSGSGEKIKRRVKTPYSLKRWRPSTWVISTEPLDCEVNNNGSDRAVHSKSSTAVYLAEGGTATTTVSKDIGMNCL

T2: [^125 I]-BMP-4 (Homo sapiens (Human), UniProt P12644, 125I label (iodinated with IODOBEADS or by the chloramine-T method))
T2 sequence: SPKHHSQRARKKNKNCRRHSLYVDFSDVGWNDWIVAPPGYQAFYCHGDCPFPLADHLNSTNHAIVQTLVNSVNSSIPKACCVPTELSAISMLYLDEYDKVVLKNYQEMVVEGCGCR


Tests used:
[1] = biological target: T1, mouse BMP receptor kinase protein …; test: whole cell binding of [125I]-BMP-4 to COS-1 cells transfected with pJT6-mBRK-3S or pJT6-mBRK-3L; conditions: remark: other sources report otherwise; scale: times the level of mock transfected cells
[^125 I]-BMP-4 = biological target: T2, [^125 I]-BMP-4; test: covalent crosslinking (DSS) to co-transfected COS-1 cells, SDS gel
Description: COS-1 cells are transfected with the cDNA for m-BRK-3 using the construct pJT6-mBRK-3S, and/or with cDNAs for BRK-1 (using pJT4-J159F) or BRK-2 (using pJT3-BRK-2). The cells are then allowed to bind [^125I]-BMP-4, crosslinked with disuccinimidyl suberate, immunoprecipitated with antibodies to BRK-1 or BRK-2, and subjected to SDS gel electrophoresis. Antisera used are indicated below the lanes: PI, preimmune; 1379, for cells transfected with cDNA for BRK-1; 1380, for cells transfected with cDNA for BRK-2. Position of molecular weight standards is indicated on the left. Left to right, COS-1 cells transfected with BRK-1 plus m-BRK-3 (preimmune serum); BRK-1 alone; BRK-1 plus m-BRK-3; BRK-2 plus m-BRK-3; BRK-2 alone; and BRK-2 plus m-BRK-3 (preimmune serum).
COS-1 cells are transfected with the cDNA for m-BRK-3, using the construct pJT6-mBRK-3 S, and/or with cDNAs for BRK-1 (using pJT4-J159F) or BRK-2 (using pJT3-BRK-2) as described in Example 5. The transfected cells are incubated with [^125I]-BMP-4, crosslinked, and subjected to immunoprecipitation with antibodies to the appropriate type I receptor or preimmune serum as described in example 8, except that DSS is used as the crosslinking agent rather than disuccinimidyl glutarate. In cells transfected with cDNA for BRK-1 alone, a single band is precipitated by antibodies to BRK-1, migrating at an apparent molecular weight of 81 kD. […]

Binder | specific binding, times the level seen with mock transfected cells [1] | binding result ([^125 I]-BMP-4)
[^125 I]-BMP-4, P12644 (ligand, here or on the partner: 125I label (iodinated with IODOBEADS or by the chloramine-T method)) SPKHHSQRARKKNKNCRRHSLYVDFSDVGWNDWIVAPPGYQAFYCHGDCPFPLADHLNSTNHAIVQTLVNSVNSSIPKACCVPTELSAISMLYLDEYDKVVLKNYQEMVVEGCGCR | 4 and 4 to 7 | –
m-BRK-3/BRK-1 complex (receptor) chain 1: SQNQERLCAFKDPYQQDLGIGESRISHENGTILCSKGSTCYGLWEKSKGDINLVKQGCWSHIGDPQECHYEECVVTTTPPSIQNGTYRFCCCSTDLCNVNFTENFPPPDTTPLSPPHSFNRDETIIIALASVSVLAVLIVALCFGYRMLTGDRKQGLHSMNMMEAAAAEPSLDLDNLKLLELIGRGRYGAVYKGSLDERPVAVKVFSFANRQNFINEKNIYRVPLMEHDNIARFIVGDERLTADGRMEYLLVMEYYPNGSLCKYLSLHTSDWVSSCRLAHSVTRGLAYLHTELPRGDHYKPAISHRDLNSRNVLVKNDGACVISDFGLSMRLTGNRLVRPGEEDNAAISEVGTIRYMAPEVLEGAVNLRDCESALKQVDMYALGLIYWEVFMRCTDLFPGESVPDYQMAFQTEVGNHPTFEDMQVLVSREKQRPKFPEAWKENSLAVRSLKETIEDCWDQDAEARLTAQCAEERMAELMMIWERNKSVSPTVNPMSTAMQNERNLSHNRRVPKIGPYPDYSSSSYIEDSIHHTDSIVKNISSEHSMSSTPLTIGEKNRNSINYERQQAQARIPSPETSVTSLSTNTTTTNTTGLTPSTGMTTISEMPYPDETHLHATNVAQSIGPTPVCLQLTEEDLETNKLDPKEVDKNLKESSDENLMEHSLKQFSGPDPLSSTSSSLLYPLIKLAVEVTGQQDFTQAANGQACLIPDVPPAQIYPLPKQQNLPKRPTSLPLNTKNSTKEPRLKFGNKHKSNLKQVETGVAKMNTINAAEPHVVTVTMNGVAGRSHNVNSHAATTQYANGAVPAGQAANIVAHRSQEMLQNQFIGEDTRLNINSSPDEHEPLLRREQQAGHDEGVLDRLVDRRERPLEGGRTNSNNNNSNPCSEQDILTQGVTSTAADPGPSKPRRAQRPNSLDLSATNILDGSSIQIGESTQDGKSGSGEKIKRRVKTPYSLKRWRPSTWVISTEPLDCEVNNNGSDRAVHSKSSTAVYLAEGGTATTTVSKDIGMNCL chain 2: QNLDSMLHGTGMKSDLDQKKPENGVTLAPEDTLPFLKCYCSGHCPDDAINNTCITNGHCFAIIEEDDQGETTLTSGCMKYEGSDFQCKDSPKAQLRRTIECCRTNLCNQYLQPTLPPVVIGPFFDGSIRWLVVLISMAVCIVAMIIFSSCFCYKHYCKSISSRGRYNRDLEQDEAFIPVGESLKDLIDQSQSSGSGSGLPLLVQRTIAKQIQMVRQVGKGRYGEVWMGKWRGEKVAVKVFFTTEEASWFRETEIYQTVLMRHENILGFIAADIKGTGSWTQLYLITDYHENGSLYDFLKCATLDTRALLKLAYSAACGLCHLHTEIYGTQGKPAIAHRDLKSKNILIKKNGSCCIADLGLAVKFNSDTNEVDIPLNTRVGTKRYMAPEVLDESLNKNHFQPYIMADIYSFGLIIWEMARRCITGGIVEEYQLPYYNMVPSDPSYEDMREVVCVKRLRPIVSNRWNSDECLRAVLKLMSECWAHNPASRLTALRIKKTLAKMVESQDVKI | – | binds
m-BRK-3/BRK-2 complex (receptor) chain 1: SQNQERLCAFKDPYQQDLGIGESRISHENGTILCSKGSTCYGLWEKSKGDINLVKQGCWSHIGDPQECHYEECVVTTTPPSIQNGTYRFCCCSTDLCNVNFTENFPPPDTTPLSPPHSFNRDETIIIALASVSVLAVLIVALCFGYRMLTGDRKQGLHSMNMMEAAAAEPSLDLDNLKLLELIGRGRYGAVYKGSLDERPVAVKVFSFANRQNFINEKNIYRVPLMEHDNIARFIVGDERLTADGRMEYLLVMEYYPNGSLCKYLSLHTSDWVSSCRLAHSVTRGLAYLHTELPRGDHYKPAISHRDLNSRNVLVKNDGACVISDFGLSMRLTGNRLVRPGEEDNAAISEVGTIRYMAPEVLEGAVNLRDCESALKQVDMYALGLIYWEVFMRCTDLFPGESVPDYQMAFQTEVGNHPTFEDMQVLVSREKQRPKFPEAWKENSLAVRSLKETIEDCWDQDAEARLTAQCAEERMAELMMIWERNKSVSPTVNPMSTAMQNERNLSHNRRVPKIGPYPDYSSSSYIEDSIHHTDSIVKNISSEHSMSSTPLTIGEKNRNSINYERQQAQARIPSPETSVTSLSTNTTTTNTTGLTPSTGMTTISEMPYPDETHLHATNVAQSIGPTPVCLQLTEEDLETNKLDPKEVDKNLKESSDENLMEHSLKQFSGPDPLSSTSSSLLYPLIKLAVEVTGQQDFTQAANGQACLIPDVPPAQIYPLPKQQNLPKRPTSLPLNTKNSTKEPRLKFGNKHKSNLKQVETGVAKMNTINAAEPHVVTVTMNGVAGRSHNVNSHAATTQYANGAVPAGQAANIVAHRSQEMLQNQFIGEDTRLNINSSPDEHEPLLRREQQAGHDEGVLDRLVDRRERPLEGGRTNSNNNNSNPCSEQDILTQGVTSTAADPGPSKPRRAQRPNSLDLSATNILDGSSIQIGESTQDGKSGSGEKIKRRVKTPYSLKRWRPSTWVISTEPLDCEVNNNGSDRAVHSKSSTAVYLAEGGTATTTVSKDIGMNCL chain 2: RKEDSEGTAPAPPQKKLSCQCHHHCPEDSVNSTCSTDGYCFTIIEEDDSGGHLVTKGCLGLEGSDFQCRDTPIPHQRRSIECCTGQDYCNKHLHPTLPPLKNRDFAEGNIHHKALLISVTVCSILLVLIIIFCYFRYKRQEARPRYSIGLEQDETYIPPGESLKDLIEQSQSSGSGSGLPLLVQRTIAKQIQMVKQIGKGRYGEVWMGKWRGEKVAVKVFFTTEEASWFRETEIYQTVLMRHENILGFIAADIKGTGSWTQLYLITDYHENGSLYDYLKSTTLDTKGMLKLAYSSVSGLCHLHTGIFSTQGKPAIAHRDLKSKNILVKKNGTCCIADLGLAVKFISDTNEVDIPPNTRVGTKRYMPPEVLDESLNRNHFQSYIMADMYSFGLILWEIARRCVSGGIVEEYQLPYHDLVPSDPSYEDMREIVCIKRLRPSFPNRWSSDECLRQMGKLMMECWAHNPASRLTALRVKKTLAKMSESQDIKL | – | binds

Source: patent publication US6306622, “cDNA encoding a BMP type II receptor” (The Procter & Gamble Co., dated 2001)
